Values of other authors, collected in article PMC10532679.

Experiments:
PKA-C (Homo sapiens) [1] = target: PKA-C (Homo sapiens) (UniProt P17612)
PKA-C (Homo sapiens) [2] = target: PKA-C (Homo sapiens) (UniProt P17612); remark: listed apart in the source

In the case of PKA-RII (from UniProt P13861), the Ki (PKA-C (Homo sapiens) [1]) is listed as less than 1 nM and the Kd (PKA-C (Homo sapiens) [2]) is listed as 0.1 nM.
